B1: nifB promoter 50 bp (-47 to +3) (dsDNA)
DNA 1: GGAGAAGTGAATTGACTGTATTTGTCCCTGTCTCTAAGATGTAATTATAT
DNA 2: ATATAATTACATCTTAGAGACAGGGACAAATACAGTCAATTCACTTCTCC
B2: scrambled 39 bp DNA (dsDNA)
DNA 1: GTACGGAGTATCCAGCTCCGTAGCATGCAAATCCTCTGG
DNA 2: CCAGAGGATTTGCATGCTACGGAGCTGGATACTCCGTAC

Columns and labels:
[1] = target: T1, E. coli sigma70-RNAP holoenzyme (Escherichia coli, UniProt P0A7Z4;P0A8V2;P0A8T7;P0A800;P00579 1-329;1-1342;1-1407;2-91;1-613); assay: EMSA; reported to bind more tightly than Paenibacillus sigma70; EMSA: Roche DIG Gel Shift Kit, 0.03 pmol labeled DNA, buffer not stated; footprinting: binding 30 min at 25 C, DNase I 40 s at 37 C; settings: protein: commercial; chain copies: 2;1;1;1;1; label: digoxigenin (DIG Gel Shift Kit); blunt
[2] = target: T1, E. coli sigma70-RNAP holoenzyme; assay: EMSA; EMSA: Roche DIG Gel Shift Kit, 0.03 pmol labeled DNA, buffer not stated; footprinting: binding 30 min at 25 C, DNase I 40 s at 37 C; settings: protein: commercial; chain copies: 2;1;1;1;1; blunt

| Binder | binding result [1] | binding result [2] |
| --- | --- | --- |
| B1 | binds |  |
| B2 |  | no binding |
